Measurements taken from FireProtDB (doi:10.1021/bi201253b).

B1: H116S, A5H7H0 (parent)
chain: MQLQNFLSIVLLVVSGAIAGTVMDHDKIAKLPASGSPLETKFQPQLHIGNGCHSYPAVDAQGNWSGGLKPTGAPSAACKDTSKAQTYVRSATFQGKTALVYAWYMPKDEISTGIGHRHDWEGAVVFLNSDTQQIDGVAASAHGKWRKYPNPGGANIDDTHVKLQYSAEPVINSHALDLTDKGGDLPTLASWEGMGADARAAINERSHWGDANPPIADSLIGSSLSGAWMW

Variants of: B1
Conditions: Moniliophthora perniciosa; pH 7.2; Thermal; CD; sodium phosphate buffer 4mM; EDTA CaCl2 with ZnCl2 62.5 micro M 120 micro M 120 micro M; structure 3ST1; whole UniProt chain shown

Row | Variant | Tm | change of melting temperature, mutant - wild type (higher = more stable)
1 | H116S | 39.9 °C | -0.07 °C
2 | H116A | 40.4 °C | 0.4 °C
3 | V170R | 37.7 °C | -2.26 °C
4 | D119K | 40.2 °C | 0.25 °C
5 | D210S | 38.7 °C | -1.25 °C
